Experimental data as given in patent US20230310634A1 (IMMUNEXT, published 2023).

What was measured:
human VISTA = biological target: T1, human VISTA (human, UniProt Q9H7M9 33-194, limits assumed); test: SPR on a ProteOn instrument; format of antibody and antigen not stated
T1 sequence: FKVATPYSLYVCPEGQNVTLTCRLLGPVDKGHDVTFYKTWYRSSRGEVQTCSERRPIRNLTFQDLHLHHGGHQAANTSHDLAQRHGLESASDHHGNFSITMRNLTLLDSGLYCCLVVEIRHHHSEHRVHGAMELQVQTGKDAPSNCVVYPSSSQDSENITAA

hIX50 (human VISTA ECD) [1] = biological target: T2, hIX50 (human VISTA ECD) (human, UniProt Q9H7M9 33-194, biotinylated in the pH ELISA (sites not given); not biotinylated when coated on the plate); test: ELISA: INX200 coated at 1 ug/mL, biotinylated hIX50 titrated at pH 7.5, streptavidin-HRP/TMB; the concentration is that of hIX50
T2 construct: also called soluble VISTA; biotinylated hIX50
T2 sequence: T1 sequence

hIX50 (human VISTA ECD) [2] = biological target: T2, hIX50 (human VISTA ECD); test: ELISA: hIX50 coated at 1 ug/mL, antibody titrated, mouse anti-human kappa-HRP/TMB, OD450
hIX50 (human VISTA ECD) [3] = biological target: T2, hIX50 (human VISTA ECD); test: ELISA: hIX50 coated at 1 ug/mL, conjugate titrated, mouse anti-human kappa-HRP/TMB, OD450

B1: VSTB56 (antibody, V domains shown)
VH: QVQLVQSGAEVKKPGASVKVSCKASGYTFTSYWLHWVRQAPGQGLEWMGYIIPNTLHTDYNQKFKDRVTMTRDTSTSTVYMELSSLRSEDTAVYYCARLDGDYDYALDYWGQGTLVTVSS
VL: DIVMTQTPLSLSVTPGQPASISCRASESVEYYGTSFMQWYLQKPGQPPQLLIYTASNVESGVPDRFSGSGSGTDFTLKISRVEAEDVGVYYCQQSRKVPYTFGQGTKLEIK
- Kd (human VISTA): 20 pM

B2: VSTB66 (antibody, V domains shown)
VH: QVQLVQSGAEVKKPGASVKVSCKASGYPFTGYFMHWVRQAPGQGLEWMGRINPYNGGTVYNQNFNDRVTMTRDTSTSTVYMELSSLRSEDTAVYYCARWTFDGLFMDYWGQGTTVTVSS
VL: DVVMTQSPLSLPVTLGQPASISCRASENVDKYGISFMNWFQQRPGQSPRRLIYATSNQGSGVPDRFSGSGSGTDFTLKISRVEAEDVGVYYCQQSKEDPYTFGQGTKLEIK
- Kd (human VISTA): 80 pM

B3: INX200 (antibody, V domains shown)
VH: QVQLVQSGAEVKKPGASVKVSCKASGYTFANYLIGWVRQAPGQRLEWMGDIYPGGGFISYNEKFKGRVTITRDTSASTAYMELSSLRSEDTAVYYCARRFDYGGYFFDYWGQGTLVTVSS
VL: DIVMTQSPLSLPVTPGEPASISCRSSQSIVHSNGNIYLEWYLQKPGQSPQLLIYKVSNRFSGVPDRFSGSGSGTDFTLKISRVEAEDVGVYYCFQGSHVPWTFGQGTKLEIK
modifications: Alexa Fluor 488 label in the flow-cytometry results (p-1139); unlabelled in the ELISAs
- EC50 (read off the curve) (hIX50 (human VISTA ECD) [1]): ~0.7 ng/mL
- EC50 (read off the curve) (hIX50 (human VISTA ECD) [2]): ~8 ng/mL

B4: VSTB92 (antibody, V domains shown)
VH: B3 VH
VL: B3 VL
- Kd (human VISTA): 90 pM

B5: INX200A (other)
VH: B3 VH
VL: B3 VL
modifications: Linker/payload A (esterase sensitive linker with dexamethasone) on the reduced interchain disulfide cysteines, DAR about 8; these cysteines lie in the constant regions, which are not given here.
- EC50 (read off the curve) (hIX50 (human VISTA ECD) [3]): ~10 ng/mL

B6: VSTB103 (antibody, V domains shown)
VH: EVQLVQSGAEVKKPGESLKISCKGSGYSFTSYWIGWVRQMPGKGLEWMGIIYPGDSDTRYSPSFQGQVTISADKSISTAYLQWSSLKASDTAMYYCARDDALYGGYYLDYWGQGTLVTVSS
VL: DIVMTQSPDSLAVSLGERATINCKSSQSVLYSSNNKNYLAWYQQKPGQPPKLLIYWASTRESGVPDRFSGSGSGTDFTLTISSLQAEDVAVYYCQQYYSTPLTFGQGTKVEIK
- Kd (human VISTA): 640 pM
